Experimental data reported in article PMC12866175 (European journal of nuclear medicine and molecular imaging, 2021).

Key:
[1] = parameters: species or system BALB/c mice; conditions: mouse, in vivo
[2] = tested on: non-tumor-bearing BALB/c mice; test: Toxicity, single intravenous injection, 5 months; type: in vivo

## C[C@@H](O)[C@H](NC(=O)[C@@H]1CSSC[C@H](NC(=O)[C@@H](Cc2ccccc2)NC(=O)CN2CCN(CC(=O)O)CCN(CC(=O)O)CCN(CC(=O)O)CC2)C(=O)N[C@@H](Cc2ccc(O)cc2)C(=O)N[C@H](Cc2c[nH]c3ccccc23)C(=O)N[C@@H](CCCCN)C(=O)N[C@@H]([C@@H](C)O)C(=O)N1)C(=O)O [[^225Ac]Ac-DOTA-TATE, metal not drawn]
[1]
  clearance of activity from the tissues: largely cleared
[2]; mouse, in vivo
  ALKP among the cohorts: No significant differences
  ALT among the cohorts: No significant differences
  AST among the cohorts: No significant differences
  Blood BUN: in the normal range
  Blood creatinine: in the normal range
  acute kidney damage by pathology: no acute kidney damage
  damage in the liver or other tissues by pathology: no treatment related damage
[2]; to 5 months p.i.
  survival: all animals survived
